Source: patent US20250074996A1 (Innovent, published 2025)
Where two headings read alike, the source gives them in different places.

Columns and labels:
[1] = target: T1, CD3E on the surface of Jurkat-NFAT-Luc cells (UniProt P07766 23-207); experiment: cell-based or functional assay
[2] = target: T1, CD3E on the surface of Jurkat-NFAT-Luc …; experiment: cell-based or functional assay; remark: listed apart in the source
[3] = target: T1, CD3E on the surface of Jurkat-NFAT-Luc …; experiment: cell-based or functional assay; remark: listed apart in the source
[4] = target: T1, CD3E on the surface of Jurkat-NFAT-Luc …; experiment: cell-based or functional assay; remark: listed apart in the source
[5] = target: T1, CD3E on the surface of Jurkat-NFAT-Luc …; experiment: cell-based or functional assay; remark: listed apart in the source
[6] = target: T2, human GPRC5D (human, UniProt Q9NZD1 1-345); experiment: flow cytometry on huGPRC5D-GS-CHO cells
T2 construct: whole, on cells; also called huGPRC5D; G protein-coupled receptor family C group 5 member D
T2 sequence (Q9NZD1 whole entry): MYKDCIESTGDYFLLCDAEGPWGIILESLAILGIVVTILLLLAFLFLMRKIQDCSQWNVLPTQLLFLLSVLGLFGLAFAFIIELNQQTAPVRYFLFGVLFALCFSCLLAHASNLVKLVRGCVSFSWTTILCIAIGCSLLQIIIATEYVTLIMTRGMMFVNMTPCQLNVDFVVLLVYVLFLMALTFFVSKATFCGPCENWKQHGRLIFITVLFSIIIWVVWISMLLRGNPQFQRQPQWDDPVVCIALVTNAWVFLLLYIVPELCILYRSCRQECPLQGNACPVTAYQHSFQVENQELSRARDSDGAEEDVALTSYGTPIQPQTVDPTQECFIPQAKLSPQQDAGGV
Description: (§1) The affinity of the anti-GPRC5D antibody was detected by flow cytometry. Antibodies at various concentrations were co-incubated with cells expressing human GPRC5D, including GS-CHO cells overexpressing human GPRC5D (huGPRC5D GS-CHO), multiple myeloma cells MM1.R, H929 and AMO-1, for 30 min. A fluorescently-labeled secondary antibody (APC-mouse anti-human IgG Fc antibody, Biolegend, Cat #409306) was then added, the cell fluorescence intensity was detected using a Live/Dead yellow dead cell stain (Thermo Fisher, Cat #L34967) by flow cytometry, a curve was fitted using GraphPad Prism 8.0, and the EC50 value was calculated to show the binding affinity of the antibody to human GPRC5D.
(§2) Among the antibodies detected, HB15H1G1 (the heavy chain variable region of SEQ ID NO: 25, and the light chain variable region of SEQ ID NO: 26) was a fully human antibody, and ch5E12C4 (the heavy chain variable region of SEQ ID NO: 98, and the light chain variable region of SEQ ID NO: 99), ch11B7 (the heavy chain variable region of SEQ ID NO: 100, and the light chain variable region of SEQ ID NO: 101) and ch7F5D4 antibodies (the heavy chain variable region of SEQ ID NO: 27, and the light chain variable region of SEQ ID NO: 28) were chimeric antibodies.

[7] = target: T2, human GPRC5D; experiment: flow cytometry on AMO-1 cells
Description: as §1, §2

[8] = target: T2, human GPRC5D; experiment: flow cytometry on H929 cells
Description: as §1, §2

[9] = target: T2, human GPRC5D; experiment: flow cytometry on MM1.R cells
Description: as §1, §2

T1 sequence (P07766 23-207): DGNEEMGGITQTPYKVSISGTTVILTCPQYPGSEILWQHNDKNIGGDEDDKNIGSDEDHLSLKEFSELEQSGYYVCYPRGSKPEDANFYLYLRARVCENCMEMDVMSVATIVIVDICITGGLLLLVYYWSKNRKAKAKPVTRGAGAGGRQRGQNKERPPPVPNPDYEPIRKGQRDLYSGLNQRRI

B1: BCMA×CD3 bispecific antibody 46758 (bispecific antibody, human IgG1, kappa, L234A L235A)
chain 1: not shown
chain 2: not shown
chain 3: DIVMTQSPDSLAVSLGERATINCKSSQSLLNARTGKNYLAWYQQKPGQPPKLLIYWASTRESGVPDRFSGSGSGTDFTLTISSLQAEDVAVYYCKQSYSRRTFGCGTKVEIKGGGGSGGGGSGGGGSGGGGSQVQLVQSGAEVKKPGASVKVSCKASGFNIKDYYMHWVRQAPGQCLEWMGWIDLENANTVYNAKFQGRVTITRDTSASTAYMELSSLRSEDTAVYYCARDAYGRYFYDVWGQGTLVTVSSGSEPKSSDKTHTCPPCPAPEAAGGPSVFLFPPKPKDTLMISRTPEVTCVVVDVSHEDPEVKFNWYVDGVEVHNAKTKPREEQYNSTYRVVSVLTVLHQDWLNGKEYKCKVSNKALPAPIEKTISKAKGQPREPQVCTLPPSRDELTKNQVSLSCAVKGFYPSDIAVEWESNGQPENNYKTTPPVLDSDGSFFLVSKLTVDKSRWQQGNVFSCSVMHEALHNHYTQKSLSLSPGK
EC50 of Jurkat-NFAT-Luc luciferase activation; tumor cells ARD [1]: 133 pM | EC50 of Jurkat-NFAT-Luc luciferase activation; tumor cells MM.1S [1]: 159 pM | EC50 of Jurkat-NFAT-Luc luciferase activation; target cells huGPRC5D-GS-CHO [2]: 5.9 pM | EC50 of Jurkat-NFAT-Luc luciferase activation; tumor cells H929 [2]: 344 pM | EC50 of Jurkat-NFAT-Luc luciferase activation; tumor cells L363 [2]: 192 pM | EC50 of Jurkat-NFAT-Luc luciferase activation; tumor cells U266 [2]: 31.1 pM | EC50 of Jurkat-NFAT-Luc luciferase activation; tumor cells 8226 [3]: 79.8 pM | EC50 of Jurkat-NFAT-Luc luciferase activation; tumor cells H929 [3]: 83.5 pM | EC50 of Jurkat-NFAT-Luc luciferase activation; tumor cells L363 [3]: 90.1 pM | EC50 of Jurkat-NFAT-Luc luciferase activation; tumor cells U266 [3]: 603 pM | EC50 of Jurkat-NFAT-Luc luciferase activation; tumor cells H929 [4]: 70 pM | EC50 of Jurkat-NFAT-Luc luciferase activation; tumor cells L363 [4]: 430 pM | EC50 of Jurkat-NFAT-Luc luciferase activation; tumor cells 8226 [5]: 79.8 pM | EC50 of Jurkat-NFAT-Luc luciferase activation; tumor cells H929 [5]: 83.5 pM | EC50 of Jurkat-NFAT-Luc luciferase activation; tumor cells L363 [5]: 90.1 pM | EC50 of Jurkat-NFAT-Luc luciferase activation; tumor cells U266 [5]: 603 pM

B2: TS-F2-1 (HB15H1G1/SP34.24/38456) (antibody, human IgG1, kappa, lambda, L234A L235A)
heavy 1: not shown
light 1: not shown
heavy 2: not shown
light 2: QAVVTQEPSLTVSPGGTVTLTCRSSTGAVTTSNYANWVQQKPGQAPRGLIGGTNKRAPGVPARFSGSLLGDKAALTLLGAQPEDEAEYYCALWYSNLWVFGQGTKLTVLGQPKAAPSVTLFPPSSEELQANKATLVCLISDFYPGAVTVAWKADSSPVKAGVETTTPSKQSNNKYAASSYLSLTPEQWKSHRSYSCQVTHEGSTVEKTVAPTECS
EC50 of Jurkat-NFAT-Luc luciferase activation; tumor cells L363 [4]: 240 pM

B3: TS-F2-2 (38456/SP34.24/HB15H1G1) (antibody, human IgG1, kappa, lambda, L234A L235A)
heavy 1: not shown
light 1: not shown
heavy 2: not shown
light 2: QAVVTQEPSLTVSPGGTVTLTCRSSTGAVTTSNYANWVQQKPGQAPRGLIGGTNKRAPGVPARFSGSLLGDKAALTLLGAQPEDEAEYYCALWYSNLWVFGQGTKLTVLGQPKAAPSVTLFPPSSEELQANKATLVCLISDFYPGAVTVAWKADSSPVKAGVETTTPSKQSNNKYAASSYLSLTPEQWKSHRSYSCQVTHEGSTVEKTVAPTECS
EC50 of Jurkat-NFAT-Luc luciferase activation; tumor cells H929 [4]: 10 pM | EC50 of Jurkat-NFAT-Luc luciferase activation; tumor cells L363 [4]: 130 pM

B4: ch5E12C4 (antibody, V domains shown)
VH: EVQLQQSGPELVKPGASVKMSCKASGYTFIGYVMHWVKRKPGQGLEWIGYINPYNDVSQHNGKFKGKATLTSDKSSSTAYMELSSLTSEDSAVYYCAREGRLGLRVLAYWGQGTLVTVSA
VL: not shown
EC50 [6]: 9180 pM | EC50 [7]: 100000 pM | EC50 [8]: 21700 pM | EC50 [9]: 3700 pM

B5: ch11B7 (antibody, V domains shown)
VH: EVQLQQSVAELARPGASVKMSCKASGYTFTTYTMHWVKQRPGQGLEWIGFIIPSSGYTSYNQNFKDKVTLTADKSSSTAYMQLSSLTSEDSAVYFCTGGQARAYYPLDYWGQGTSVTVSS
VL: DIVMTQSPAILSVSPGERVSFSCRASQSIGTTIHWYQQRSNGSPRLLIKYASESISGIPSRFSGSGSGTYFTLSINSVESEDIADYFCQQSYNWPRTFGGGTKLEIK
EC50 [6]: 1140 pM | EC50 [8]: 5990 pM

B6: ch7F5D4 (antibody, V domains shown)
VH: DVQLQESGPGLVKPSQSLSLTCTVTGYSITSDYAWNWIRQFPGNKLEWMVYIDYTGRTSYNPSLKSRISLTRDTSKNQFFLQFNSVTTEDTATYYCARGNYGRYYYVMDYWGQGTSVTVSS
VL: DIQMTQTTSSLSASLGDRVTISCRASQDIRNYLNWYQQRPDGTIKLLIYYTSRLHSGVPSRFSGSGSGTDYSLTISNLDQEDFATYFCQQGNMLPWTFGGGTSLEIK
EC50 [6]: 2590 pM | EC50 [7]: 6300 pM | EC50 [8]: 7300 pM | EC50 [9]: 500 pM

B7: HB15H1G1 (antibody, V domains shown)
VH: QVQLVESGGGVVQPGRSLRLSCTASGFTFSSYGLHWVRQAPGKGLEWVAVIWYDGSNKYYIDSVKGRFIISRDNSKNTLYLQMNSLRAEDTAVYYCARFTMFRGITLDYWGQGTLVTVSS
VL: DIQMTQSPSSLSASVGDRVTITCRASQRINSYLNWYQQKPGKAPKLLIYAASSLQSGVPSRFSGSGSGTDFTLTISNLQPEDFATYYCQQSYSTPLTFGGGTKVEIK
notes: Fully human anti-GPRC5D antibody; also called HB15H1B1
EC50 [6]: 1890 pM | EC50 [7]: 9400 pM | EC50 [8]: 3700 pM | EC50 [9]: 700 pM
